This passage reports molar excess giving complete inhibition (fold molar excess) results from US20060057144A1.

In the test the target is PsFcγRIIa (recombinant soluble human FcγRIIa protein produced in baculovirus-infected Sf-21 cells) (human) (UniProt P12318). In words: SPR competition; monomeric IgG (0 to 2 mg/ml) premixed with 50 ug/ml PsFcγRIIa, passed over immobilised IgG1.

As to “monomeric IgG (Sandaglobulin, available from Sandoz) (antibody)”, the molar excess giving complete inhibition (fold molar excess) is 6.
